In US7482004B2, “Inhibitors of placental growth factor for the treatment of pathological angiogenesis, pathological arteriogenesis, inflammation, tumor formation and/or vascular leakage” (Vlaams Interuniversitair Instituut voor Biotechnologie vzw, priority 2000, dated 2009):
Marks after values point to notes of the source that are not given here.

B1: PLGF: murine Placental Growth Factor (R&D) (protein, UniProt P49764 19-158, looked up)
Placenta growth factor: VHSQGALSAGNNSTEVEVVPFNEVWGRSYCRPMEKLVYILDEYPDEVSHIFSPSCVLLSRCSGCCGDEGLHCVPIKTANITMQILKIPPNRDPHFYVEMTFSQDVLCECRPILETTKAERRKTKGKRKRSRNSQTEEPHP

Experiments:
[1] = test system: PLGF^+/+ endothelial cells; assay: Endothelial proliferation, PLGF+/+ cells; format: cell-based, mouse
Description: (§1) Proliferation and survival of endothelial cells in response to VEGF were studied. […] PIGF was also found to modulate the mitogenic response to VEGF of smooth muscle cells, known to express VEGFR-1 and VEGFR-2 (C. L. Grosskreutz et al., 1999, Microvasc. Res. 58, 128-136). […] Thus, PIGF affected endothelial and smooth muscle cells only when they were stimulated with VEGF.
(§2) The data represent the mean±SD of nine to twelve experiments. *: p<0.05 versus control (vehicle). None of the antibodies affected baseline endothelial proliferation in the absence of VEGF (not shown). Ab: polyclonal antiserum; MoAb: monoclonal antibodies; bFGF: basic fibroblast growth factor.
(§3) Endothelial and smooth muscle cell culture: In order to obtain mouse capillary endothelial cells, anesthetized mice were injected s.c. with 500 μl of ice-cold matrigel containing bFGF (100 ng/ml) and heparin (100 μg/ml). After seven days, the matrigel pellet was dissected and enzymatically dispersed using 0.1% type II collagenase (Sigma, St. Louis, Mo.). Mouse endothelial cells were routinely cultured in T75 flasks coated with 0.1% gelatin in M131 medium supplemented with 5% MVGS (Gibco-BRL). Smooth muscle cells from mouse aorta were harvested and cultured as described (J. M. Herbert et al., 1997, FEBS Lett. 413, 401-404). […]

[2] = test system: PLGF^−/− endothelial cells; assay: Endothelial proliferation, PLGF-/- cells; format: cell-based, mouse
Description: as §1, §2, §3

PIGF^+/+ mice = assay: Matrigel assay, PIGF+/+ mice; format: in vivo, mouse; conditions: subcutaneous matrigel with 100 ng/ml factor, seven days, n=15
Description: (§4) Since VEGF plays a role in the above-mentioned phenotypes of angiogenesis, arteriogenesis and permeability, we investigated whether PIGF determined the responsiveness to VEGF. Subcutaneous implantation of matrigel (A. Passaniti et al., 1992, Lab. Invest. 67, 519-528) supplemented with VEGF165 (VEGF165) induced a strong angiogenic response in PIGF^+/+ but not in PIGF^−/− mice (hemoglobin content: 0.28±0.02 g/dl in PIGF^+/+ mice versus 0.02±0.02 g/dl in PIGF^−/− mice; n=15; p<0.05).
(§5) In contrast, basic fibroblast growth factor (bFGF) induced a similar angiogenic response in both genotypes (hemoglobin content: 0.28±0.02 g/dl in PIGF^+/+ mice versus 0.25±0.02 g/dl in PIGF^−/− mice; n=15; p=NS). These observations were confirmed by histological analysis and immunostaining for endothelial factor VIII-related antigen.
(§6) Matrigel assay: Ingrowth of capillaries in matrigel was performed as described (A. Passaniti et al., 1992, Lab. Invest. 67, 519-528). […] After seven days, the matrigel pellet with the neovessels was dissected for analysis of neovascularization: one part was homogenized to determine the hemoglobin content determined using Drabkin's reagent (Sigma, St. Quentin Fallavier, France), whereas the other part was fixed in 1% paraformaldehyde for histological analysis.

PIGF^−/− mice = assay: Matrigel assay, PIGF-/- mice; format: in vivo, mouse; conditions: subcutaneous matrigel with 100 ng/ml factor, seven days, n=15
Description: as §4, §5, §6

[3] = test system: PIGF^+/+ and PIGF^−/− smooth muscle cells; assay: Smooth muscle cell proliferation; format: cell-based, mouse
Description: as §1
(§7) Endothelial and smooth muscle cell culture: In order to obtain mouse capillary endothelial cells, anesthetized mice were injected s.c. with 500 μl of ice-cold matrigel containing bFGF (100 ng/ml) and heparin (100 μg/ml). After seven days, the matrigel pellet was dissected and enzymatically dispersed using 0.1% type II collagenase (Sigma, St. Louis, Mo.). Mouse endothelial cells were routinely cultured in T75 flasks coated with 0.1% gelatin in M131 medium supplemented with 5% MVGS (Gibco-BRL). Smooth muscle cells from mouse aorta were harvested and cultured as described (J. M. Herbert et al., 1997, FEBS Lett. 413, 401-404). Before stimulation, cells were starved in medium with 0.5% serum for 24 hours, after which they were stimulated with human VEGF165 and/or murine PIGF, or bFGF (all from R&D, Abingdon, UK) for 24 hours before analysis of the total cell number (proliferation) or the number of cells migrated after scrape-wounding (migration).

[4] = test system: PIGF^+/+ and PIGF^−/− endothelial cells; assay: Endothelial cell migration (chemotaxis); format: cell-based, mouse; conditions: for chemotaxis of endothelial cells: 100 ng/ml (VEGF165, PIGF), both genotypes
Experimental: (§8) The reduced response of PIGF^−/− endothelial cells to VEGF was confirmed using cultured primary PIGF^−/− endothelial cells. […] Thus, PIGF determines and synergistically amplifies the response to VEGF.
as §7

[5] = test system: PIGF^+/+ and PIGF^−/− smooth muscle cells; assay: Smooth muscle cell migration; format: cell-based, mouse
Experimental: as §8, §7

PIGF^−/− fibroblasts = assay: VEGF production by PIGF-/- fibroblasts; format: cell-based; conditions: 100 ng/ml for 48 hours
Experimental: (§9) Expression of VEGF by PIGF^−/− fibroblasts was increased by PIGF (VEGF production per 10^6 cells/ml/24 hours: 180±10 pg after treatment with vehicle versus 440±10 pg after treatment with 100 ng/ml PIGF for 48 hours; p<0.05 versus vehicle). Similar results were obtained for PIGF^+/+ fibroblasts (VEGF production per 10^6 cells/ml/24 hours: 200±8 pg after treatment with vehicle versus 430±5 pg after treatment with 100 ng/ml PIGF for 48 hours; p<0.05 versus vehicle).

PIGF^+/+ fibroblasts = assay: VEGF production by PIGF+/+ fibroblasts; format: cell-based; conditions: 100 ng/ml for 48 hours
Experimental: as §9

[6] = test system: PIGF^+/+ and PIGF^−/− endothelial cells; assay: Endothelial cell survival (apoptosis by serum deprivation or TNF-α); format: cell-based, mouse
Description: as §1, §7

[7] = PIGF added to VEGF165, PIGF^−/− endothelial cells

| Molecule | Endothelial proliferation ([1]; 50 ng/ml) | Endothelial proliferation ([2]; 50 ng/ml) | hemoglobin content (angiogenic response in matrigel) (PIGF^+/+ mice) | hemoglobin content (angiogenic response in matrigel) (PIGF^−/− mice) | smooth muscle cell proliferation [3] | chemotaxis of endothelial cells [4] | migration of smooth muscle cells [5] | Endothelial proliferation ([1]; 100 ng/ml of each factor) | Endothelial proliferation ([2]; 100 ng/ml of each factor) | VEGF production per 10^6 cells/ml/24 hours (PIGF^−/− fibroblasts) | VEGF production per 10^6 cells/ml/24 hours (PIGF^+/+ fibroblasts) | proliferation and survival response to VEGF165 [6, 7] | mitogenic and anti-apoptotic activity ([6]; factor alone, endothelial cells of either genotype) | migration of endothelial cells in response to VEGF165 [4, 7] |
| --- | --- | --- | --- | --- | --- | --- | --- | --- | --- | --- | --- | --- | --- | --- |
| bFGF: basic fibroblast growth factor | 35 ± 2* | 35 ± 5* | 0.28 ± 0.02 g/dL | 0.25 ± 0.02 g/dL | comparable responses | both genotypes responded comparably | stimulated smooth muscle cells of both genotypes | – | – | – | – | – | – | – |
| B1 | – | – | – | – | ineffective by itself, restored the responsiveness of PIGF^−/− cells to VEGF | not chemotactic for endothelial cells of either genotype | rescued the impaired smooth muscle cell response to VEGF | 11 ± 1 | 11 ± 1 | 440±10 pg | 430±5 pg | rescued the impaired proliferation and survival response | not mitogenic nor anti-apoptotic | completely restored the impaired migration |
